Assay results published in patent US20220380454A1 (University of California, published 2022).

B1: Vangl2-Flag (other, not shown: small tags and cut ends)
chain: MDTESQYSGYSYKSGHSRSSRKHRDRRDRHRSKSRDGSRGDKSVTIQAPGEPLLDNESTRGDERDDNWGETTTVVTGTSEHSISHDDLTRIAKDMEDSVPLDCSRHLGVAAGAILALLSFLTPLAFLLLPPLLWREELEPCGTACEGLFISVAFKLLILLLGSWALFFRRPKASLPRVFVLRALLMVLVFLLVISYWLFYGVRILDARERSYQGVVQFAVSLVDALLFVHYLAVVLLELRQLQPQFTLKVVRSTDGASRFYNVGHLSIQRVAVWILEKYYHDFPVYNPALLNLPKSVLAKKVSGFKVYSLGEENSTNNSTGQSRAVIAAAARRRDNSHNEYYYEEAEHERRVRKRRARLVVAVEEAFTHIKRLQEEEQKNPREVMDPREAAQAIFASMARAMQKYLRTTKQQPYHTMESILQHLEFCITHDMTPKAFLERYLAAGPTIQYHKERWLAKQWTLVSEEPVTNGLKDGIVFLLKRQDFSLVVSTKKVPFFKLSEEFVDPKSHKFVMRLQSETSV
B2: mouse Ryk-HA (receptor, UniProt Q01887 35-594, looked up)
chain: RSPALAAAPAGPSVSLYLSEDEVRRLLGLDAELYYVRNDLISHYALSFNLLVPSETNFLHFTWHAKSKVEYKLGFQVDNFVAMGMPQVNISAQGEVPRTLSVFRVELSCTGKVDSEVMILMQLNLTVNSSKNFTVLNFKRRKMCYKKLEEVKTSALDKNTSRTIYDPVHAAPTTSTRVFYISVGVCCAVIFLVAIILAVLHLHSMKRIELDDSISASSSSQGLSQPSTQTTQYLRADTPNNATPITSSSGYPTLRIEKNDLRSVTLLEAKAKVKDIAISRERITLKDVLQEGTFGRIFHGILVDEKDPNKEKQTFVKTVKDQASEVQVTMMLTESCKLRGLHHRNLLPITHVCIEEGEKPMVVLPYMNWGNLKLFLRQCKLVEANNPQAISQQDLVHMAIQIACGMSYLARREVIHRDLAARNCVIDDTLQVKITDNALSRDLFPMDYHCLGDNENRPVRWMALESLVNNEFSSASDVWAFGVTLWELMTLGQTPYVDIDPFEMAAYLKDGYRIAQPINCPDELFAVMACCWALDPEERPKFQQLVQCLTEFHAALGAYV
notes: whole, on cells; Expressed in HEK293T cells; not shown: HA tag
B3: human Ryk-Flag (receptor)
chain: PPPLLLLLALLPLLPAPGAAAAPAPRPPELQSASAGPSVSLYLSEDEVRRLIGLDAELYYVRNDLISHYALSFSLLVPSETNFLHFTWHAKSKVEYKLGFQVDNVLAMDMPQVNISVQGEVPRTLSVFRVELSCTGKVDSEVMILMQLNLTVNSSKNFTVLNFKRRKMCYKKLEEVKTSALDKNTSRTIYDPVHAAPTTSTRVFYISVGVCCAVIFLVAIILAVLHLHSMKRIELDDSISASSSSQGLSQPSTQTTQYLRADTPNNATPITSSLGYPTLRIEKNDLRSVTLLEAKGKVKDIAISRERITLKDVLQEGTFGRIFHGILIDEKDPNKEKQAFVKTVKDQASEIQVTMMLTESCKLRGLHHRNLLPITHVCIEEGEKPMVILPYMNWGNLKLFLRQCKLVEANNPQAISQQDLVHMAIQIACGMSYLARREVIHKDLAARNCVIDDTLQVKITDNALSRDLFPMDYHCLGDNENRPVRWMALESLVNNEFSSASDVWAFGVTLWELMTLGQTPYVDIDPFEMAAYLKDGYRIAQPINCPDELFAVMACCWALDPEERPKFQQLVQCLTEFHAALGAYV
notes: not shown: Flag tag
B4: Frizzled3-HA (receptor, not shown: small tags and cut ends)
chain: HSLFSCEPITLRMCQDLPYNTTFMPNLLNHYDQQTAALAMEPFHPMVNLDCSRDFRPFLCALYAPICMEYGRVTLPCRRLCQRAYSECSKLMEMFGVPWPEDMECSRFPDCDEPYPRLVDLNLVGDPTEGAPVAVQRDYGFWCPRELKIDPDLGYSFLHVRDCSPPCPNMYFRREELSFARYFIGLISIICLSATLFTFLTFLIDVTRFRYPERPIIFYAVCYMMVSLIFFIGFLLEDRVACNASSPAQYKASTVTQGSHNKACTMLFMVLYFFTMAGSVWWVILTITWFLAAVPKWGSEAIEKKALLFHASAWGIPGTLTIILLAMNKIEGDNISGVCFVGLYDVDALRYFVLAPLCLYVVVGVSLLLAGIISLNRVRIEIPLEKENQDKLVKFMIRIGVFSILYLVPLLVVIGCYFYEQAYRGIWETTWIQERCREYHIPCPYQVTQMSRPDLILFLMKYLMALIVGIPSIFWVGSKKTCFEWASFFHGRRKKEIVNESRQVLQEPDFAQSLLRDPNTPIIRKSRGTSTQGTSTHASSTQLAMVDDQRSKAGSVHSKVSSYHGSLHRSRDGRYTPCSYRGMEERLPHGSMSRLTDHSRHSSSHRLNEQSRHSSIRDLSNNPMTHITHGTSMNRVIEEDGTSA
notes: Expressed in transfected HEK293T cells; also called Fzd3-HA; HA-tagged Frizzled3

Key:
[1] = biological target: T1, oligomeric Aβ42 (biotin-Aβ42 oligomers) (human, biotin (human biotin-beta-Amyloid (1-42), AnaSpec); position not stated); experiment: biotin-Aβ42 oligomers on transfected HEK293T cells, 488-conjugated streptavidin staining
T1 construct: Mixture of oligomers prepared from human Aβ42 (24-26 h at 4 °C, supernatant); The number of copies per oligomer is therefore not fixed; also called Aβ oligomers; oligomerized Aβ
Description: Binding assay. HEK293 cells were transiently transfected (polyethylenimine) with expression vectors encoding TdTomato, Celsr3-Flag or control empty vectors (pCAGEN). […] DAPI was used to counterstain cell nuclei; TdTomato was used to monitor construct transfection. Anti-flag antibody was used to stain Celsr3. Fluorescent images were captured with Zeiss LSM 880 fast airyscan using a 63× oil-immersion objective.

[2] = biological target: T1, oligomeric Aβ42 (biotin-Aβ42 oligomers); experiment: biotin-Aβ42 oligomers on transfected HEK293T cells, streptavidin staining

Binder | binding result [1] | binding result [2]
B1 | no binding (tested: 200 nM total peptide, monomer equivalent) | –
B2 | – | no binding (tested: 200 nM total peptide, monomer equivalent)
B3 | – | no binding (tested: 200 nM total peptide, monomer equivalent)
B4 | no binding (tested: 200 nM total peptide, monomer equivalent) | –
